{
  "source": "paper PMC6763497",
  "about": "“Argonaute bypasses cellular obstacles without hindrance during target search”",
  "binders": {"B1": {"name": "Guide 3nt (2-4) / single target (ssDNA)", "DNA 1": "CGAGTATTTTTTTTTTTTTTTT", "DNA 2": "TTTTTTTTTTTTTTTTTTTTTTTTTTTTTTTTTTTACTACCTCTTTTTTTTTTTTTTTTTTTTTTTTTTTTTT", "modifications": "guide 5' phosphate; amino-C6-dT at guide nt 9 and target nt 28"}, "B2": {"name": "Guide 8nt (2-9) / single target (ssDNA)", "DNA 1": "CGAGGTAGTTTTTTTTTTTTTT", "DNA 2": "B1 DNA 2", "modifications": "guide 5' phosphate; amino-C6-dT"}, "B3": {"name": "Guide 7nt (2-8) / single target (ssDNA)", "DNA 1": "CGAGGTAGATTTTTTTTTTTTT", "DNA 2": "B1 DNA 2", "modifications": "guide 5' phosphate; amino-C6-dT"}, "B4": {"name": "Guide 6nt / tandem 22 nt (ssDNA)", "DNA 1": "CGAGGTATTTTTTTTTTTTTTT", "DNA 2": "B1 DNA 2 with T14A, T15C, T17A, T18C, T19C, T21C", "modifications": "guide 5' phosphate; amino-C6-dT"}, "B5": {"name": "Guide 3nt / tandem 22 nt (ssDNA)", "DNA 1": "CGAGTATTTTTTTTTTTTTTTT", "DNA 2": "B1 DNA 2 with T14A, T15C, T17A, T18C, T19C, T21C", "modifications": "guide 5' phosphate; amino-C6-dT"}, "B6": {"name": "Guide 3nt / tandem 120 nt (ssDNA)", "DNA 1": "CGAGTATTTTTTTTTTTTTTTT", "DNA 2": "TTTTTTTTTTTTTTACTACCTCTTTTTTTTTTTTTTTTTTTTTTTTTTTTTTTTTTTTTTTTTTTTTTTTTTTTTTTTTTTTTTTTTTTTTTTTTTTTTTTTTTTTTTTTTTTTTTTTTTTTTTTTTTTTTTTTACTACCTCTTTTTTTTTTTTTTTTTTTTTTTTTTTTTTT", "modifications": "guide 5' phosphate; amino-C6-dT; target 3' phosphate"}, "B7": {"name": "Guide 3nt / triple target (ssDNA)", "DNA 1": "CGAGTATTTTTTTTTTTTTTTT", "DNA 2": "TTTTTTTTTTTTACCTCTTTTTTACCTCTTTTTTACCTCTTTTTTTTTTTTTTTTTTTTTTTTTTTTTT", "modifications": "guide 5' phosphate; amino-C6-dT"}, "B8": {"name": "Guide 3nt / Lin28 double target (mixed)", "DNA 1": "CGAGTATTTTTTTTTTTTTTTT", "DNA 2": "TTTTTTTTTTTTTTTTTTTACTACCTCTTTTTTTTTTTTTTTTTTTTGCGCTATGCGGTTGTATAGTTTTAGGGTCACACCCACCACTGGGAGATAACTATACAATCGCATAGCGCTTTTTTTTTTTTTTTTTTTTTTTTTTTTTTTTTACTACCTCTTTTTTTTTTTTTTTTT", "modifications": "guide 5' phosphate; amino-C6-dT"}, "B9": {"name": "Guide 3nt / tandem 64 nt (ssDNA)", "DNA 1": "CGAGTATTTTTTTTTTTTTTTT", "DNA 2": "TTTTTTTTTTTTTTACTACCTCTTTTTTTTTTTTTTTTTTTTTTTTTTTTTTTTTTTTTTTTTTTTTTTTTTTTTTTTACTACCTCTTTTTTTTTTTTTTTTTTTTTTTTTTTTTTTT", "modifications": "guide 5' phosphate; amino-C6-dT; target 3' phosphate"}, "B10": {"name": "Guide 3nt / tandem 92 nt (ssDNA)", "DNA 1": "CGAGTATTTTTTTTTTTTTTTT", "DNA 2": "TTTTTTTTTTTTTTACTACCTCTTTTTTTTTTTTTTTTTTTTTTTTTTTTTTTTTTTTTTTTTTTTTTTTTTTTTTTTTTTTTTTTTTTTTTTTTTTTTTTTTTTTACTACCTCTTTTTTTTTTTTTTTTTTTTTTTTTTTTTTT", "modifications": "guide 5' phosphate; amino-C6-dT; target 3' phosphate"}, "B11": {"name": "Guide 3nt / 36 nt target with 17 nt block (mixed)", "DNA 1": "CGAGTATTTTTTTTTTTTTTTT", "DNA 2": "TTTTTTTTTTTTTTACTACCTCTCGGACCAACAGCGGGTACGGCTGTGCTACTACCTCTTTTTTTTTTTTTTTTTTTTTTTTTTTTTTTT", "DNA 3": "ACAGCCGTACCCGCTGT", "modifications": "guide 5' phosphate; labelled T in block"}, "B12": {"name": "Guide 3nt / 36 nt target with 25 nt block (mixed)", "DNA 1": "CGAGTATTTTTTTTTTTTTTTT", "DNA 2": "B11 DNA 2", "DNA 3": "TAGCACAGCCGTACCCGCTGTTGGT", "modifications": "guide 5' phosphate; labelled T in block"}, "B13": {"name": "Guide 3nt / 36 nt target with 21 nt block (mixed)", "DNA 1": "CGAGTATTTTTTTTTTTTTTTT", "DNA 2": "B11 DNA 2", "DNA 3": "GCACAGCCGTACCCGCTGTTG", "modifications": "guide 5' phosphate; labelled T in block"}, "B14": {"name": "Guide 3nt / tandem 15 nt (ssDNA)", "DNA 1": "CGAGTATTTTTTTTTTTTTTTT", "DNA 2": "TTTTTTTTTTTTTACTACCTCTTTTTTTACTACCTCTTTTTTTTTTTTTTTTTTTTTTTTTTTTTT", "modifications": "guide 5' phosphate; amino-C6-dT"}, "B15": {"name": "Guide 3nt / 11 nt Y-fork (mixed)", "DNA 1": "CGAGTATTTTTTTTTTTTTTTT", "DNA 2": "TTTTTTTTTTTTTTTTTTTTTTTTCTCTTTGGCGACGGCAGCGAGGC", "DNA 3": "GCCTCGCTGCCGTCGCCATTTTTTCTCTTTTTTTTT", "modifications": "guide 5' phosphate; dye-labelled T in target"}},
  "key": {"[1]": {"molecular_target": "T1, CbAgo (Clostridium butyricum, UniProt P0DYD1 1-748)", "test": "smFRET; 100 mM NaCl; mean dwell 37 s, koff 2.7e-2 s-1; 50 mM Tris-HCl pH 8.0, 100 mM NaCl (10-200 mM in salt series); temperature not given; TIRF smFRET, 100 ms", "conditions": "protein: recombinant, tags: His6-MBP removed by TEV, label: Cy3 guide, Cy5 target, 3' biotin target, 3 nt match (guide nt 2-4)"}, "[2]": {"molecular_target": "T1, CbAgo", "test": "smFRET; stable beyond photobleaching time; 50 mM Tris-HCl pH 8.0, 100 mM NaCl (10-200 mM in salt series); temperature not given; TIRF smFRET, 100 ms", "conditions": "protein: recombinant, tags: His6-MBP removed by TEV, label: Cy3 guide, Cy5 target, 3' biotin target"}, "[3]": {"molecular_target": "T1, CbAgo", "test": "smFRET; 15.1% shuttling; strongly bound; 50 mM Tris-HCl pH 8.0, 100 mM NaCl (10-200 mM in salt series); temperature not given; TIRF smFRET, 100 ms", "conditions": "protein: recombinant, tags: His6-MBP removed by TEV, label: Cy3 guide, Cy5 target, 3' biotin, two sites, 6 nt match"}, "[4]": {"molecular_target": "T1, CbAgo", "test": "smFRET; 100 mM NaCl; 87.8% shuttling, 13.5 events per binding; 50 mM Tris-HCl pH 8.0, 100 mM NaCl (10-200 mM in salt series); temperature not given; TIRF smFRET, 100 ms", "conditions": "protein: recombinant, tags: His6-MBP removed by TEV, label: Cy3 guide, Cy5 target, 3' biotin, two sites"}, "[5]": {"molecular_target": "T1, CbAgo", "test": "smFRET; shuttling time 2.11 s (2.03-2.19); 50 mM Tris-HCl pH 8.0, 100 mM NaCl (10-200 mM in salt series); temperature not given; TIRF smFRET, 100 ms", "conditions": "protein: recombinant, tags: His6-MBP removed by TEV, label: Cy3 guide, Cy5 target, 3' biotin dT, two sites"}, "[6]": {"molecular_target": "T1, CbAgo", "test": "smFRET; three-state shuttling; 50 mM Tris-HCl pH 8.0, 100 mM NaCl (10-200 mM in salt series); temperature not given; TIRF smFRET, 100 ms", "conditions": "protein: recombinant, tags: His6-MBP removed by TEV, label: Cy3 guide, Cy5 target, 3' biotin, three sites 11 nt apart"}, "[7]": {"molecular_target": "T1, CbAgo", "test": "smFRET; Lin28b bound between targets; shuttling; 50 mM Tris-HCl pH 8.0, 100 mM NaCl (10-200 mM in salt series); temperature not given; TIRF smFRET, 100 ms", "conditions": "protein: recombinant; tags: His6-MBP removed by TEV; label: Cy3 guide; Cy5 target; hairpin between two ss target sites"}, "[8]": {"molecular_target": "T1, CbAgo", "test": "smFRET; shuttling time 0.5124 s at 200 mM NaCl; 50 mM Tris-HCl pH 8.0, 100 mM NaCl (10-200 mM in salt series); temperature not given; TIRF smFRET, 100 ms", "conditions": "protein: recombinant, tags: His6-MBP removed by TEV, label: Cy3 guide, Cy5 target, 3' biotin dT, two sites"}, "[9]": {"molecular_target": "T1, CbAgo", "test": "smFRET; shuttling rate 0.3188 s-1; 50 mM Tris-HCl pH 8.0, 100 mM NaCl (10-200 mM in salt series); temperature not given; TIRF smFRET, 100 ms", "conditions": "protein: recombinant, tags: His6-MBP removed by TEV, label: Cy3 guide, Cy5 target, 3' biotin dT, two sites"}, "[10]": {"molecular_target": "T1, CbAgo", "test": "smFRET; 17 bp blockade, shuttling; 50 mM Tris-HCl pH 8.0, 100 mM NaCl (10-200 mM in salt series); temperature not given; TIRF smFRET, 100 ms", "conditions": "protein: recombinant; tags: His6-MBP removed by TEV; label: Cy3 guide; 3' biotin dT target; strands 2:3 pair over 17 bp, ss flanks"}, "[11]": {"molecular_target": "T1, CbAgo", "test": "smFRET; 25 bp blockade; 50 mM Tris-HCl pH 8.0, 100 mM NaCl (10-200 mM in salt series); temperature not given; TIRF smFRET, 100 ms", "conditions": "protein: recombinant; tags: His6-MBP removed by TEV; label: Cy3 guide; 3' biotin dT target; strands 2:3 pair over 25 bp, ss flanks"}, "[12]": {"molecular_target": "T1, CbAgo", "test": "smFRET; 21 bp blockade; 50 mM Tris-HCl pH 8.0, 100 mM NaCl (10-200 mM in salt series); temperature not given; TIRF smFRET, 100 ms", "conditions": "protein: recombinant; tags: His6-MBP removed by TEV; label: Cy3 guide; 3' biotin dT target; strands 2:3 pair over 21 bp, ss flanks"}, "[13]": {"molecular_target": "T1, CbAgo", "test": "smFRET; shuttling time 0.4459 s at 200 mM NaCl; 50 mM Tris-HCl pH 8.0, 100 mM NaCl (10-200 mM in salt series); temperature not given; TIRF smFRET, 100 ms", "conditions": "protein: recombinant, tags: His6-MBP removed by TEV, label: Cy3 guide, Cy5 target, 3' biotin, two sites"}, "[14]": {"molecular_target": "T1, CbAgo", "test": "smFRET; shuttling time as tandem 11 nt; 50 mM Tris-HCl pH 8.0, 100 mM NaCl (10-200 mM in salt series); temperature not given; TIRF smFRET, 100 ms", "conditions": "protein: recombinant; tags: His6-MBP removed by TEV; label: Cy3 guide; Cy5 target; 5' biotin strand; fork 2:3, 17 bp stem"}},
  "note": "Numbering of substitutions follows the chain as printed.",
  "data": [
    {"binder": "B1", "values": [
      {"measurement": "binding result", "setting": "[1]", "result": "binds"}
    ]},
    {"binder": "B2", "values": [
      {"measurement": "binding result", "setting": "[2]; named 8 nt match (nt 2-9)", "result": "binds"}
    ]},
    {"binder": "B3", "values": [
      {"measurement": "binding result", "setting": "[2]; named 7 nt match (nt 2-8)", "result": "binds"}
    ]},
    {"binder": "B4", "values": [
      {"measurement": "binding result", "setting": "[3]", "result": "binds"}
    ]},
    {"binder": "B5", "values": [
      {"measurement": "binding result", "setting": "[4]", "result": "binds"}
    ]},
    {"binder": "B6", "values": [
      {"measurement": "binding result", "setting": "[5]", "result": "binds"}
    ]},
    {"binder": "B7", "values": [
      {"measurement": "binding result", "setting": "[6]", "result": "binds"}
    ]},
    {"binder": "B8", "values": [
      {"measurement": "binding result", "setting": "[7]", "result": "binds"}
    ]},
    {"binder": "B9", "values": [
      {"measurement": "binding result", "setting": "[8]", "result": "binds"}
    ]},
    {"binder": "B10", "values": [
      {"measurement": "binding result", "setting": "[9]", "result": "binds"}
    ]},
    {"binder": "B11", "values": [
      {"measurement": "binding result", "setting": "[10]", "result": "binds"}
    ]},
    {"binder": "B12", "values": [
      {"measurement": "binding result", "setting": "[11]", "result": "binds"}
    ]},
    {"binder": "B13", "values": [
      {"measurement": "binding result", "setting": "[12]", "result": "binds"}
    ]},
    {"binder": "B14", "values": [
      {"measurement": "binding result", "setting": "[13]", "result": "binds"}
    ]},
    {"binder": "B15", "values": [
      {"measurement": "binding result", "setting": "[14]", "result": "binds"}
    ]}
  ]
}
